Publication PMC11683240

Columns and labels:
[1] = biological target: Bordetella pertussis toxin (PT) holotoxin (Bordetella pertussis) (UniProt P04977); experiment: FACS; conditions: natural protein
[2] = biological target: Bordetella pertussis toxin (PT) holotoxin (Bordetella pertussis) (UniProt P04977); experiment: FACS; conditions: natural protein; remark: listed apart in the source

Sequence of α1-antitrypsin (Prolastin, plasma-derived) (P01009 25-418): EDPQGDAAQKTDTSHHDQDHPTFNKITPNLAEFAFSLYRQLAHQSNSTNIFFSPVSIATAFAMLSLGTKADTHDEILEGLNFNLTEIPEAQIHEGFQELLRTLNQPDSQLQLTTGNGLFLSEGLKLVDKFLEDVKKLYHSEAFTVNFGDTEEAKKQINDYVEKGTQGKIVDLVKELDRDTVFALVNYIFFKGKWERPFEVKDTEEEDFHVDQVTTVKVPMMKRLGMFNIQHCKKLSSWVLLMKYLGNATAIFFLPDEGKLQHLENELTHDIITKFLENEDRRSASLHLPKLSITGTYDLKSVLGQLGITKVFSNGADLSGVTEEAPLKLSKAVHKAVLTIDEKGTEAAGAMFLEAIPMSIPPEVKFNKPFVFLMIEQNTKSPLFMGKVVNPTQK

α1-antitrypsin (Prolastin, plasma-derived) (from UniProt P01009 25-418)
IC50 [1]: 0.796 µM
IC50 [2]: 1.73 µM
